Assay results reported in US20220144895A1, “DE NOVO DESIGN OF TUNABLE PH-DRIVEN CONFORMATIONAL SWITCHES” (University of Washington, priority 2019, published 2022).
Numbering of substitutions follows the chain as printed. Names may count otherwise.

Assays:
U2-OS cells = conditions: Bafilomycin A 1 μM, Chloroquine 50 μM as controls; cited from earlier work
[1] = molecular target: T1, pRO-4 Chain B (heterodimer pRO-4), hexahistidine tag cleaved; experiment: SEC and native mass spectrometry; heterodimer
T1 construct: The tag was removed for all pH experiments
T1 chain: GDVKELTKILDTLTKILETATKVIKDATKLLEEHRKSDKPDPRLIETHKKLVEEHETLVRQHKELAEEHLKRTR

[2] = molecular target: the molecule itself; experiment: native mass spectrometry; homotrimer
Protocol: Oligomeric state was assessed by size-exclusion chromatography (SEC) and native mass spectrometry (24).
(§1) Samples were buffer exchanged twice into 200 mM ammonium acetate (NH₄Ac; MilliporeSigma) using Micro Bio-Spin P-6 columns (Bio-Rad). Protein concentrations were determined by UV absorbance using a Nanodrop 2000c spectrophotometer (Thermo Fisher Scientific) and diluted to make up a 10-fold stock solution (50 μM and 16.7 μM monomer and trimer concentration, respectively). 1 μL of this solution was mixed with 9 μL 200 mM NH₄Ac/50 mM triethylammonium acetate (TEAA; MilliporeSigma), adjusted with acetic acid (Fisher Scientific) to obtain the desired final pH and incubated on ice for 30 min.

[3] = Size-exclusion chromatography (SEC); type: physicochemical; conditions: high concentration
Protocol: Cells were lysed by microfluidization in the presence of 1 mM PMSF. Lysates were clarified by centrifugation at 24,000 ref at 4° C. for at least 30 minutes. Proteins were purified by Immobilized metal affinity chromatography (IMAC): supernatant was applied to Ni-NTA (Qiagen) columns pre-equilibrated in lysis buffer. The column was washed twice with 15 column volumes (CV) of wash buffer (25 mM Tris pH 8.0 at room temperature, 300 mM NaCl, 40 mM Imidazole), followed by 3-5 CV of high-salt wash buffer (25 mM Tris pH 8.0 at room temperature, 1 M NaCl, 40 mM Imidazole) then an additional 15 CV of wash buffer. Protein was eluted with 250 mM Imidazole, and buffer-exchanged into 25 mM Tris pH 8.0 and 150 mM NaCl without imidazole for cleavage of the N-terminal hexahistidine tag by purified hexahistidine-tagged TEV protease (with the exception of design pRO-1, which was cleaved using restriction grade thrombin (EMD Millipore 69671-3) at room temperature for 4 hours or overnight, using a 1:3000 dilution of enzyme into sample solution). A second Ni-NTA step was used to remove hexahistidine tag, uncleaved sample and the hexahistidine-tagged TEV protease, and the cleaved proteins were then […], 150 mM NaCl, and 2% glycerol.

[4] = Native mass spectrometry of pH-induced changes in oligomeric state; type: physicochemical
Protocol: Samples were buffer exchanged twice into 200 mM ammonium acetate (NH4Ac; MilliporeSigma) using Micro Bio-Spin P-6 columns (Bio-Rad). Protein concentrations were determined by UV absorbance using a Nanodrop 2000c spectrophotometer (Thermo Fisher Scientific) and diluted to make up a 10-fold stock solution (50 μM and 16.7 μM monomer and trimer concentration, respectively). 1 μL of this solution was mixed with 9 μL 200 mM NH4Ac/50 mM triethylammonium acetate (TEAA; MilliporeSigma), adjusted with acetic acid (Fisher Scientific) to obtain the desired final pH and incubated on ice for 30 min. […] 5 μL samples were filled into an in-house pulled glass capillary and ionized by nESI at a monomer or a trimer concentration of 5 μM or 1.67 μM respectively. All pH titration data were acquired on an in-house modified SYNAPT® G2 HDMS (Waters Corporation) with a surface-induced dissociation (SID) device incorporated between a truncated trap traveling wave ion guide and the ion mobility cell (39). The following instrument parameters were used spray voltage 0.9-1.3 kV; sampling cone, 20 V; extraction cone, 2 V; source temperature, room temperature; trap gas flow, 4 mL/min; trap bins, 45V. The data were processed with MassLynx™ v4.1 and DriftScope™ v2.1. For relative quantification, charge state series were extracted from DriftScope™, and smoothed spectra (mean; window 20; number of smooths 20) were integrated.
Python scripts were written to generate theoretical models according Equation 1, and curve-fitting to native mass spectrometry data (FIGS. 1, 3, 5) according to Equation 2 by nonlinear least squares using curve fit from scipy.optimize. The free energy estimates for individual n, m, and l layers used in Equation 1 modeling were estimated by solving linear equations as follows: values for the free energy of folding for designs pRO-2 and variants were estimated from GdmCl denaturation experiments (FIG. 11); each of these designs have different numbers of n, m, and l layers, thus series of linear equations relating the number of each layer type to the total free energies of folding were solved to estimate dG values of the individual layers of each type.

[5] = molecular target: the molecule itself; experiment: native mass spectrometry at the indicated pH
Protocol: as §1

[6] = Circular dichroism: GdmCl chemical denaturation and temperature melts; conditions: CD at 222 nm, PBS pH 7.4 or Na2PO4-Citrate at lower pH
From the text: For low-pH experiments involving circular dichroism (CD), small-angle X-ray scattering (SAXS), and size exclusion chromatography (SEC), Na2PO4-Citrate buffer was used to ensure that a single buffer system could be used that was stable over the entire pH range to be tested. Buffers were made using established ratios of stock solutions of 0.2 M Na2PO4 and 0.1 M Citrate; final pH was adjusted using hydrochloric acid (HCl) or sodium hydroxide (NaOH) if needed.
CD wavelength scans (260 to 195 nm) and temperature melts (25 to 95° C.) were measured using a JASCO™ J-1500 or an AVIV™ model 420 CD spectrometer. Temperature melts monitored absorption signal at 222 nm and were carried out at a heating rate of 4° C./min; protein samples were at 0.25 mg/mL in either phosphate buffered saline (PBS) pH 7.4 or Na2PO4-Citrate at indicated pH values (see Buffers systems for varying pH). Guanidinium chloride (GdmCl) titrations were all performed on an AVIV 420 spectrometer with an automated titration apparatus using either PBS pH 7.4 or Na2PO4-Citrate buffers at indicated pH at room temperature, monitoring helical signal at 222 nm, using a protein concentration of 0.025 mg/mL in a 1 cm cuvette with stir bar. Each titration consisted of at least 30 evenly distributed concentration points with one minute mixing time for each step. Titrant solution consisted of the same concentration of protein in the same buffer system plus GdmCl; GdmCl concentration of starting solutions was determined by reactive index.

## CCN(CC)CCCC(C)Nc1ccnc2cc(Cl)ccc12 (centres unmarked) [Chloroquine]
U2-OS cells
  effect on lysosomal pH (known drugs): known to neutralize lysosomal pH

## CO/C1=C\C(C)=C\[C@@H](C)[C@@H](O)[C@@H](C)C/C(C)=C/C=C/[C@H](OC)[C@@H]([C@@H](C)[C@@H](O)[C@H](C)[C@@]2(O)C[C@@H](O)[C@H](C)[C@@H](C(C)C)O2)OC1=O [Bafilomycin A]
U2-OS cells
  effect on lysosomal pH (known drugs): known to neutralize lysosomal pH

B1: pRO-4 Chain A (heterodimer pRO-4) (designed binder)
chain: MDEEDHLKKLKTHLEKLERHLKLLEDHAKKLEDILKERPEDSAVKESIDELRRSIELVRESIEIFRQSVEEEE
[1]
  binding result: binds

B2: pRO-2.1 subunit (designed binder)
chain: SEYEIRKALEELKAALAELKRATASLRAITEELKKNPSEDALVEHNRAIVEHNAIIVEVLRIIAAVLELIVRAIK
notes: forms a homotrimer; Tag-free form
[2]
  binding result: binds

B3: pRO-2.5 subunit (designed binder)
chain: B2 chain with A15S, L16T, I29S, H45N, A48L, V59N, L60N
notes: forms a homotrimer; Tag-free form; also called PDB 6MSR
[2]
  binding result: binds

B4: pRO-1: designed homotrimer, SEQ ID NO: 13-14 (protein)
chain 1: MGSSHHHHHHSSGLVPRGSHMGTLKEVLERLEEVLRRHREVAREHQRWAREHEQWVRDDPNSAKWIAESTRWILETTDAISRTADVLAEAIRVLAESD
chain 2: GSHMGTLKEVLERLEEVLRRHREVAREHQRWAREHEQWVRDDPNSAKWIAESTRWILETTDAISRTADVLAEAIRVLAESD
[3]
  oligomeric state by SEC: trimeric at high concentration
[4]; native MS
  oligomeric state at pH 7 / neutral pH: primarily dimeric

B5: pRO-2 I56V subunit (designed binder)
chain: GSEYEIRKALEELKAATAELKRATASLRAITEELKKNPSEDALVEHNRAIVEHNAIVVEHNRIIAAVLELIVRAIK
notes: forms a homotrimer; Tag-free form, and the entry already carries I56V
[5]
  binding result: binds

B6: pRO-2 A54M: pRO-2 mutant, SEQ ID NO: 19-20 (protein)
chain 1: MGSHHHHHHGSGSENLYFQGSEYEIRKALEELKAATAELKRATASLRAITEELKKNPSEDALVEHNRAIVEHNMIIVEHNRIIAAVLELIVRAIK
chain 2: B5 chain with A55M, V57I
[6]
  folding stability by GdmCl denaturation: increases stability
[4]; native MS at different pH values
  cooperativity of the pH-induced transition: Neither of the mutations substantially affect the cooperativity
[4]; native MS, evaluated from pH 7 down to pH 3
  pH transition point of disassembly (pH set point, pH0): decreases the transition pH
